Results: PMC11480844

B1: H2-Kb / B16 (parent)
chain 1: QQQVRQSPQSLTVWEGGTTVLTCSYEDSTFNYFPWYQQFPGEGPALLISILSVSDKKEDGRFTTFFNKREKKLSLHIIDSQPGDSATYFCAARGSALGRLHFGAGTQLIVIP
chain 2: EAAVTQSPRSKVAVTGGKVTLSCHQTNNHDYMYWYRQDTGHGLRLIHYSYVADSTEKGDIPDGYKASRPSQENFSLILELASLSQTAVYFCASSDGTNQAPLFGEGTRLSVL
chain 3: not shown
chain 4: IQKTPQIQVYSRHPPENGKPNILNCYVTQFHPPHIEIQMLKNGKKIPKVEMSDMSFSKDWSFYILAHTEFTPTETDTYACRVKHDSMAEPKTVYWDRDM
chain 5: SIINFEKL
B2: H2-Kb / E4 (parent)
chain 1: AQSVTQPDARVTVSEGASLQLRCKYSYSGTPYLFWYVQYPRQGLQLLLKYYSGDPVVQGVNGFEAEFIKSNSSFHLRKASVHWSDSAVYFCAVSAGQGGSAKLIFGEGTKLTVSS
chain 2: GGIITQTPKFLIGQEGQKLTLKCQQNFNHDTMYWYRQDSGKGLRLIYYSITENDLQKGDLSEGYDASREKKSSFSLTVTSAQKNEMAVFLCASSIWGDSYEQYFGPGTRLTVL
chain 3: not shown
chain 4: B1 chain 4
chain 5: SIINFEKL
B3: H2-Kb / B7 (parent)
chain 1: GQQVQQSPTSLVLQEGENAELQCNFSTSLNSMQWFYQRPGGSLVSVFYNPSGTKQSGRLTSTTVIKERRSSLHISSSQITDSGTYLCAMERDMGYKLTFGTGTSLLVDP
chain 2: EAAVTQSPRNKVAVTGGKVTLSCNQTNNHNNMYWYRQDTGHGLRLIHYSYGAGSTEKGDIPDGYKASRPSQENFSLILELATPSQTSVYFCASGDPGDQDTQYFGPGTRLLVL
chain 3: not shown
chain 4: B1 chain 4
chain 5: SIINFEKL

Variants of: B1
Test: % of reporter cells activated (NFAT-GFP), raw
Settings: with B16; scale: % of reporter cells activated
Note: test concentration or dose not given here.

Ratio to parent of substitutions, site by site:
chain 5 E6: I 0.917; Q 1.5; W 1.05; L 1.21; S 1.25; V 1.2; R 1.29; C 2.48; Y 1.02; K 1.12; P 1.09; N 1.36; T 1.4; G 1.23; F 1.48; H 1.39; M 1.43; A 1.57; D 1.36
chain 5 I2: H 1.62; E 1.47; F 1.2; A 1.49; G 1.56; D 1.19; C 1.48
chain 5 F5: G 1.52; K 1.52; M 1.52; W 1.26; S 1.27; E 1.52; T 1.4; Y 1.31; N 1.21; H 1.61; R 1.2; C 1.46; L 1.44; P 1.74; V 0.945; I 1.07; D 1.4; Q 1.39; A 1.48

Variants of: B2
Test: % of reporter cells activated (NFAT-GFP), raw
Settings: with E4

Ratio to parent: each site, then its substitutions
chain 5 K7: C 1.32; F 0.49; V 0.841; G 0.841; M 0.492; T 0.378; H 0.905; E 0.873; I 1.29; P 0.508; D 0.444; Y 0.425; Q 0.521; R 0.633; W 0.413; S 0.46; A 0.413; N 0.437; L 0.508
chain 5 E6: M 0.54; I 0.873; H 1.21; D 1.05; G 0.746; K 0.873; A 0.635; Y 1.08; T 0.841; N 0.619; S 0.952; V 1.05; P 0.46; W 0.635; F 0.698; R 0.81; L 0.381; Q 0.778; C 0.651
chain 5 L8: V 0.603; S 0.51; I 0.286; H 0.825; N 0.778; C 0.46; W 0.762; E 0.619; A 0.286; D 0.444; Y 0.6; M 0.381; G 0.746; Q 0.524; K 0.635; T 0.73; F 0.427; R 1.29; P 0.762
chain 5 S1: V 0.889; I 0.825; G 0.937; W 0.841; A 0.857; F 0.857; Y 0.873; T 0.905; C 0.952; H 0.841; P 0.857; R 0.565; N 0.825; L 0.937; E 0.698; Q 0.889; K 1.24; M 0.857; D 0.984
chain 5 I3: R 0.603; W 0.762; F 0.762; Q 0.81; Y 0.508; C 0.762; S 0.762; H 0.921; G 0.825; P 0.206; N 0.667; D 0.73; A 0.921; T 0.571; E 1.37; M 1; L 1.22; K 0.937; V 0.698
chain 5 F5: R 0.508; A 1.1; I 0.746; C 1.63; L 0.698; P 0.762; Y 0.492; W 0.54; K 0.825; E 0.429; D 1.32; Q 0.778; T 0.841; S 0.556; G 0.46; H 0.825; N 0.635; M 0.629; V 0.206
chain 5 I2: F 0.746; C 1.19; M 1.14; S 0.651; N 1.27; Q 0.937; P 0.937; D 0.762; T 0.968; H 1.06; W 1.11; R 0.556; E 0.873; G 0.873; Y 0.825; V 0.921; K 0.746; L 1.1; A 1.43
chain 5 N4: H 1.05; R 0.905; P 0.651; I 0.873; G 0.698; A 0.889; D 0.794; S 0.714; W 0.286; Y 0.762; L 1.02; F 0.635; V 0.825; K 1.1; C 0.921; Q 0.714; T 0.635; M 0.968; E 0.603

Variants of: B3
Test: % of reporter cells activated (NFAT-GFP), raw
Settings: with B7; scale: % of reporter cells activated

Ratio to parent, by site and new letter:
chain 5 I2: D 1.45; Q 1.25; S 1.45; P 1.72; H 1.83; R 0.846; M 1.65; A 1.58; E 1.35; K 1.51; N 2.11; L 1.62; G 1.85; V 1.43; F 1.05; T 1.85; Y 1.48; C 1.11; W 1.46
chain 5 L8: Q 0.938; D 0.615; R 1.69; W 0.585; I 0.831; P 1.11; H 1.23; F 0.677; K 0.785; C 1.4; Y 0.769; S 0.6; V 0.585; G 1.42; N 1; E 0.326; A 0.862; T 0.646; M 0.892
chain 5 K7: M 0.908; P 1.48; N 0.954; F 0.846; T 1.02; I 1.25; C 1.05; Q 0.815; W 0.769; R 0.358; A 1.17; V 1.17; S 1.18; Y 1.18; H 1.66; G 0.738; E 1.14; L 1.32; D 1.02
chain 5 E6: W 1.09; Y 0.969; T 1.63; V 1.02
chain 5 N4: P 0.877; R 1; E 1.35; Q 1.08; A 1.31; S 1.11; W 1.28; F 1.26; L 1.82; C 0.908; M 1.38; I 1.43; Y 1.03; V 0.985; K 1.45; H 1.49; G 1.15; T 1.12; D 1.69
chain 5 F5: K 1.74; W 1.55; R 0.923; Q 1.25; I 0.938; C 1.97; V 0.615; Y 1.2; M 1.68; G 1.03; D 1.55; T 1.05; N 1.31; L 1.46; E 1.49; H 1.34; S 0.831; P 1.74; A 1.62
chain 5 I3: V 1.17; S 0.646; K 1.75; D 1.11; N 1.62; W 1.48; Q 1.65; H 1.68; M 1.29; G 1.86; A 1.68; C 1.58; F 1.02; T 1.48; L 1.4; R 0.862; P 1.45; E 1.32; Y 1.2
chain 5 S1: Y 1.37; P 1.74; I 0.969; M 1.42; W 1.77; K 1.4; Q 2.08; E 1.29; H 1.45; T 1.62; D 1.55; R 1; F 0.831; N 0.862; V 1.8; L 1.03; C 1.8; G 1.57; A 1.63
